Key:
Settings in all cases: 20 nM; 72 h
[1] = test system: MCF10A; test: 5+ nucleoli phenotype percent effect (relative to siNT 0% and siKIF11 100%); higher = more cells with five or more nucleoli
Experimental: (§1)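 After 72 h, cells were fixed and stained with Hoechst and anti-fibrillarin, and nucleoli per nucleus were counted with CellProfiler. Values are plate-adjusted percent effect for the one-nucleolus and 5+ nucleoli phenotypes, normalised to siNT (0%) and to the positive controls siNOL11 or siKIF11 (100%), as the mean of biological triplicates. Percent viability is the nuclei count relative to siNT.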

[2] = test system: MCF10A; test: percent viability (nuclei count relative to siNT); higher = more viable cells
Experimental: as §1

[3] = test system: MCF10A; test: one-nucleolus phenotype percent effect (relative to siNT 0% and siNOL11 100%); higher = more cells with one nucleolus (ribosome biogenesis inhibition)
Experimental: as §1

With “AGUGGGAGGACAGGAGGCAGGU [hsa-miR-6778-5p]” the “5+ nucleoli phenotype percent effect” value [1] was -9.05%, the percent viability [2] was 26.7% and the “one-nucleolus phenotype percent effect” value [3] was -2.52%.
For AUCCGCGCUCUGACUCUCUGCC [hsa-miR-937-3p], the “5+ nucleoli phenotype percent effect” value [1] was 8.26%, the percent viability [2] was 78.1% and the “one-nucleolus phenotype percent effect” value [3] was -5.97%.
In the case of “UGGGGGCUGGAUGGGGUAGAGU [hsa-miR-6846-5p]”, the “5+ nucleoli phenotype percent effect” value [1] is reported as -0.876%, the percent viability [2] is reported as 23.9% and the “one-nucleolus phenotype percent effect” value [3] is reported as 7.84%.
In the case of CUGACUGUUGCCGUCCUCCAG [hsa-miR-943], the “5+ nucleoli phenotype percent effect” value [1] is reported as -13.7%, the percent viability [2] is reported as 62.9% and the “one-nucleolus phenotype percent effect” value [3] is reported as -0.183%.
For “GCGGUGAUCCCGAUGGUGUGAGC [hsa-miR-598-5p]”, the “5+ nucleoli phenotype percent effect” value [1] was 32.8%, the percent viability [2] was 93.1% and the “one-nucleolus phenotype percent effect” value [3] was -24%.
For “UCAAAUGCUCAGACUCCUGUGGU [hsa-miR-105-5p]”, the “5+ nucleoli phenotype percent effect” value [1] was -18%, the percent viability [2] was 37.7% and the “one-nucleolus phenotype percent effect” value [3] was -6.5%.
“AGCCAGGCUCUGAAGGGAAAGU [hsa-miR-4755-3p]” was tested, and the “5+ nucleoli phenotype percent effect” value [1] was 3.33%, the percent viability [2] was 59.3% and the “one-nucleolus phenotype percent effect” value [3] was 7.85%.
In the case of UGGGAACUUAGUAGAGGUUUAA [hsa-miR-4471], the “5+ nucleoli phenotype percent effect” value [1] is reported as 7.89%, the percent viability [2] is reported as 26.7% and the “one-nucleolus phenotype percent effect” value [3] is reported as 5.31%.
In the case of “UUCGGGCUGGCCUGCUGCUCCGG [hsa-miR-3944-3p]”, the “5+ nucleoli phenotype percent effect” value [1] is reported as 17.5%, the percent viability [2] is reported as 30.8% and the “one-nucleolus phenotype percent effect” value [3] is reported as -7.09%.
For AUACCCAUAGCUUAGCUCCCA [hsa-miR-5591-3p], the “5+ nucleoli phenotype percent effect” value [1] was -19.5%, the percent viability [2] was 16.2% and the “one-nucleolus phenotype percent effect” value [3] was 47%.
“ACUUUCCUCACUCCCGUGAAGU [hsa-miR-3124-3p]” was tested, and the “5+ nucleoli phenotype percent effect” value [1] was 49.4%, the percent viability [2] was 115% and the “one-nucleolus phenotype percent effect” value [3] was -15.5%.
In the case of GGCGGCGGCGGAGGCGGGGG [hsa-miR-3960], the “5+ nucleoli phenotype percent effect” value [1] is reported as -17.5%, the percent viability [2] is reported as 47.6% and the “one-nucleolus phenotype percent effect” value [3] is reported as 26.8%.
In the case of CUAUUAAGGACAUUUGUGAUUC [hsa-miR-4477a], the “5+ nucleoli phenotype percent effect” value [1] is reported as -13.7%, the percent viability [2] is reported as 32.6% and the “one-nucleolus phenotype percent effect” value [3] is reported as -0.508%.
For AGAGCUUAGCUGAUUGGUGAAC [hsa-miR-27b-5p], the “5+ nucleoli phenotype percent effect” value [1] was -22.4%, the percent viability [2] was 78.6% and the “one-nucleolus phenotype percent effect” value [3] was 17.8%.
UUUCCUCAUAUUCAUUCAGGA [hsa-miR-670-3p] was tested, and the “5+ nucleoli phenotype percent effect” value [1] was -7.45%, the percent viability [2] was 46.6% and the “one-nucleolus phenotype percent effect” value [3] was 4.99%.
CACACACACACACACACGUAU [hsa-miR-8485] was tested, and the “5+ nucleoli phenotype percent effect” value [1] was -36.9%, the percent viability [2] was 15.8% and the “one-nucleolus phenotype percent effect” value [3] was 57.6%.
CAAUUCUCAAAGGAGCCUCCC [hsa-miR-5571-5p] was tested, and the “5+ nucleoli phenotype percent effect” value [1] was -26.3%, the percent viability [2] was 32.7% and the “one-nucleolus phenotype percent effect” value [3] was 34%.
In the case of CUGGAGUCUAGGAUUCCA [hsa-miR-4309], the “5+ nucleoli phenotype percent effect” value [1] is reported as -25.6%, the percent viability [2] is reported as 33.2% and the “one-nucleolus phenotype percent effect” value [3] is reported as 33.6%.
In the case of CCAUGGAUCUCCAGGUGGGU [hsa-miR-490-5p], the “5+ nucleoli phenotype percent effect” value [1] is reported as 16.2%, the percent viability [2] is reported as 63.5% and the “one-nucleolus phenotype percent effect” value [3] is reported as 0.865%.
“UCAGCAGGCAGGCUGGUGCAGC [hsa-miR-3619-5p]” was tested, and the “5+ nucleoli phenotype percent effect” value [1] was -36.5%, the percent viability [2] was 27.1% and the “one-nucleolus phenotype percent effect” value [3] was 56.3%.
With “AAGCUCAGGUUUGAGAACUGCUGA [hsa-miR-6854-5p]” the “5+ nucleoli phenotype percent effect” value [1] was -24.5%, the percent viability [2] was 57.3% and the “one-nucleolus phenotype percent effect” value [3] was 18.3%.
With UCACUACCUGACAAUACAGU [hsa-miR-4999-3p] the “5+ nucleoli phenotype percent effect” value [1] was 0.698%, the percent viability [2] was 52.7% and the “one-nucleolus phenotype percent effect” value [3] was -25.2%.
In the case of “AGGACUGAUCCUCUCGGGCAGG [hsa-miR-4740-5p]”, the “5+ nucleoli phenotype percent effect” value [1] is reported as -14.8%, the percent viability [2] is reported as 24.1% and the “one-nucleolus phenotype percent effect” value [3] is reported as 47.7%.
With “AGCUCCCUGAAUCCCUGUCCCAG [hsa-miR-7106-3p]” the “5+ nucleoli phenotype percent effect” value [1] was 32.5%, the percent viability [2] was 74.6% and the “one-nucleolus phenotype percent effect” value [3] was -19.5%.
For “GAUCCCUUUAUCUGUCCUCUAG [hsa-miR-6866-3p]”, the “5+ nucleoli phenotype percent effect” value [1] was 77.6%, the percent viability [2] was 112% and the “one-nucleolus phenotype percent effect” value [3] was -33.5%.
In the case of UCUCUCGGCUCCUCGCGGCUC [hsa-miR-3615], the “5+ nucleoli phenotype percent effect” value [1] is reported as 27.8%, the percent viability [2] is reported as 69.8% and the “one-nucleolus phenotype percent effect” value [3] is reported as -7.12%.
UGGGCUGAGGGCAGGAGGCCUGU [hsa-miR-4656] was tested, and the “5+ nucleoli phenotype percent effect” value [1] was 20.8%, the percent viability [2] was 9.2% and the “one-nucleolus phenotype percent effect” value [3] was 22.2%.
In the case of “AGUGCCUGAGGGAGUAAGAGCCC [hsa-miR-550a-5p]”, the “5+ nucleoli phenotype percent effect” value [1] is reported as 12.6%, the percent viability [2] is reported as 47.1% and the “one-nucleolus phenotype percent effect” value [3] is reported as 7.21%.
With UCUGGUAAGAGAUUUGGGCAUA [hsa-miR-4490] the “5+ nucleoli phenotype percent effect” value [1] was 46.4%, the percent viability [2] was 54.4% and the “one-nucleolus phenotype percent effect” value [3] was -25.9%.
UAUACAAGGGCAGACUCUCUCU [hsa-miR-300] was tested, and the “5+ nucleoli phenotype percent effect” value [1] was -6.47%, the percent viability [2] was 68.9% and the “one-nucleolus phenotype percent effect” value [3] was -10.6%.
With UGUGUCACUCGAUGACCACUGU [hsa-miR-597] the “5+ nucleoli phenotype percent effect” value [1] was -3.83%, the percent viability [2] was 47.8% and the “one-nucleolus phenotype percent effect” value [3] was 13.9%.
“CUCUAGCCACAGAUGCAGUGAU [hsa-miR-1287-3p]” was tested, and the “5+ nucleoli phenotype percent effect” value [1] was -37.2%, the percent viability [2] was 17% and the “one-nucleolus phenotype percent effect” value [3] was 31.4%.
In the case of “AAAAGCACUUUUCUGUCUCCCAG [hsa-miR-6835-3p]”, the “5+ nucleoli phenotype percent effect” value [1] is reported as -36%, the percent viability [2] is reported as 41.3% and the “one-nucleolus phenotype percent effect” value [3] is reported as 12.3%.
In the case of UGUUGGGAUUCAGCAGGACCAU [hsa-miR-4425], the “5+ nucleoli phenotype percent effect” value [1] is reported as -29%, the percent viability [2] is reported as 27.3% and the “one-nucleolus phenotype percent effect” value [3] is reported as 19.2%.
In the case of ACAAAGUACAGCAUUAGCCUUAG [hsa-miR-3973], the “5+ nucleoli phenotype percent effect” value [1] is reported as 0.19%, the percent viability [2] is reported as 29.3% and the “one-nucleolus phenotype percent effect” value [3] is reported as -6.17%.
In the case of “UGAGAAGGCACAGCUUGCACGUGA [hsa-miR-6770-5p]”, the “5+ nucleoli phenotype percent effect” value [1] is reported as -3.61%, the percent viability [2] is reported as 36.9% and the “one-nucleolus phenotype percent effect” value [3] is reported as 34.3%.
With UGGGGCUCAGCGAGUUU [hsa-miR-4283] the “5+ nucleoli phenotype percent effect” value [1] was -10.7%, the percent viability [2] was 17.3% and the “one-nucleolus phenotype percent effect” value [3] was 24.3%.
“CCAGUAUUAACUGUGCUGCUGA [hsa-miR-16-1-3p]” was tested, and the “5+ nucleoli phenotype percent effect” value [1] was -19.3%, the percent viability [2] was 85.1% and the “one-nucleolus phenotype percent effect” value [3] was 7.96%.
For “CACCUUGCGCUACUCAGGUCUG [hsa-miR-3200-3p]”, the “5+ nucleoli phenotype percent effect” value [1] was -0.139%, the percent viability [2] was 24.5% and the “one-nucleolus phenotype percent effect” value [3] was -8.76%.
In the case of UCACCUGGCUGGCCCGCCCAG [hsa-miR-6765-3p], the “5+ nucleoli phenotype percent effect” value [1] is reported as 30.1%, the percent viability [2] is reported as 63.1% and the “one-nucleolus phenotype percent effect” value [3] is reported as -20.5%.
With GAUGGUUGACCAGAGAGCACAC [hsa-miR-758-5p] the “5+ nucleoli phenotype percent effect” value [1] was 60.1%, the percent viability [2] was 56.6% and the “one-nucleolus phenotype percent effect” value [3] was -21.1%.
ACGGAGACGACAAGACUGUGCUG [hsa-miR-5091] was tested, and the “5+ nucleoli phenotype percent effect” value [1] was -11.8%, the percent viability [2] was 32.1% and the “one-nucleolus phenotype percent effect” value [3] was 3.3%.
In the case of ACAGGAGUGGGGGUGGGACAU [hsa-miR-4433-3p], the “5+ nucleoli phenotype percent effect” value [1] is reported as -0.614%, the percent viability [2] is reported as 38.2% and the “one-nucleolus phenotype percent effect” value [3] is reported as 6.34%.
For “CAGGGAAAUGGGAAGAACUAGA [hsa-miR-5584-5p]”, the “5+ nucleoli phenotype percent effect” value [1] was 34.8%, the percent viability [2] was 53.3% and the “one-nucleolus phenotype percent effect” value [3] was -19.1%.
For UACCCAUUGCAUAUCGGAGUUG [hsa-miR-660-5p], the “5+ nucleoli phenotype percent effect” value [1] was -38.8%, the percent viability [2] was 30% and the “one-nucleolus phenotype percent effect” value [3] was 44.9%.

— the supplement of paper PMC10899765
